Biological target: CK2β^1–193-DBCO-Sulfo-Cy5 (human) (UniProt P67870)
Assay: other fluorescence titration; quenching of the fluorescence of 30 nM CK2β^1–193-DBCO-Sulfo-Cy5 by 0.3 nM to 5 µM CK2α variant; Monolith NT.115, mode initial fluorescence; 25°C; 500 mM NaCl, 25 mM TRIS/HCl, pH 8.5, 0.05% Tween 20

Kd	Molecule
13.6 nM	human CK2α (from UniProt P68400 1-391) (enzyme)
6.2 nM	human CK2α^Lys198Arg (enzyme) MSGPVPSRARVYTDVNTHRPREYWDYESHVVEWGNQDDYQLVRKLGRGKYSEVFEAINITNNEKVVVKILKPVKKKKIKREIKILENLRGGPNIITLADIVKDPVSRTPALVFEHVNNTDFKQLYQTLTDYDIRFYMYEILKALDYCHSMGIMHRDVKPHNVMIDHEHRKLRLIDWGLAEFYHPGQEYNVRVASRYFRGPELLVDYQMYDYSLDMWSLGCMLASMIFRKEPFFHGHDNYDQLVRIAKVLGTEDLYDYIDKYNIELDPRFNDILGRHSRKRWERFVHSENQHLVSPEALDFLDKLLRYDHQSRLTAREAMEHPYFYTVVKDQARMGSSSMPGGSTPVSSANMMSGISSVPTPSPLGPLAGSPVIAAANPLGMPVPAAAGAQQ
